Measured values: US20230295301A1 (SHANGHAI JUNSHI BIOSCIENCES, published 2023)

T1: huCTLA-4 ECD (his-tag) (human, UniProt P16410 37-162)
T1 construct: also called HX1 hCTLA4 his; HX1 huCTLA4 his; not shown: his-tag
T1 sequence: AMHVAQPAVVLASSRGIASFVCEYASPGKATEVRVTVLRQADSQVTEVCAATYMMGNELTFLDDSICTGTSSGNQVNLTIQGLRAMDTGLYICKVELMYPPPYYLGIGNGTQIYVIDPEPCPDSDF

B1: HuJS007-54 (antibody, V domains shown)
VH: QVQLQESGPGLVKPSQTLSLTCTVSAYSITSGYYWNWIRQHPGKGLEWIGYIGYDGSNNYNPSLKSRVTISRDTSKNQFSLKLSSVTAADTAVYYCARDYYSGYFDSWGQGTTLTVSS
VL: EIVMTQSPATLSVSPGERATLSCKASQNVGTYVAWYQQKPGQAPRPLIYSTSYRYSGIPARFSGSGSGTEFTLTISSLQSEDFAVYFCHQYDTYPLTFGQGTKLEIK
notes: 4B7 VH2-2 + 4B7VL9; constant regions not specified
B2: HuJS007-88 (antibody, V domains shown)
VH: QVQLQESGPGLVKPSQTLSLTCAVSGYSISSGYYWNWIRQFPGKGLEWMGYIGYDGSNYYNPSLKNRVTMSVDTSKNQFSLKLSSVTAVDTAVYYCARNYYSGYFDSWGQGTTVTVSS
VL: EIVMTQSPATLSVSPGERATLSCRASQNVGTYVAWYQQKPGQAPRPLIYSTSYRYSGIPARFSGSGSGTEFTLTISSLQSEDFAVYYCHQYDTYPLTFGQGTKLEIK
notes: 1A5 VH6 + 4B7VL7; constant regions not specified
B3: huJS007-79 (antibody, human IgG1, kappa, V domains shown)
VH: QVQLQESGPGLVKPSQTLSLTCAVSGYSISSGYYWNWIRQPPGKGLEWIGYIGYDGSNYYNPSLKSRVTMSVDTSKNQFSLKLSSVTAVDTAVYYCARNYYSGYFDSWGQGTTVTVSS
VL: EIVMTQSPATLSVSPGERATLSCRASQNVGTYVAWYQQKPGQAPRPLIYSTSYRYSGIPARFSGSGSGTEFTLTISSLQSEDFAVYYCHQYDTYPLTFGQGTKLEIKR
B4: HuJS007-61 (antibody, V domains shown)
VH: QVQLQESGPGLVKPSETLSLTCTVSGYSITSGYYWNWIRQPPGKGLEWIGYIGYDGSNNYNPSLKSRVTISRDTSKNQFSLKLSSVTAADTAVYYCARDYYSGYFDSWGQGTTLTVSS
VL: EIVMTQSPATLSVSPGERATLSCRASQNVGTYVAWYQQKPGQAPRPLIYSTSYRYSGIPARFSGSGSGTEFTLTISSLQSEDFAVYYCHQYDTYPLTFGQGTKLEIK
notes: 4B7 VH2-3 + 4B7VL7; constant regions not specified
B5: HuJS007-81 (antibody, V domains shown)
VH: QVQLQESGPGLVKPSQTLSLTCAVSGYSISSGYYWNWIRQPPGKGLEWIGYIGYDGSNYYNPSLKSRVTMSVDTSKNQFSLKLSSVTAVDTAVYYCARNYYSGYFDSWGQGTTVTVSS
VL: EIVMTQSPATLSVSPGERATLSCKASQNVGTYVAWYQQKPGQAPRPLIYSTSYRYSGIPARFSGSGSGTEFTLTISSLQSEDFAVYFCHQYDTYPLTFGQGTKLEIK
notes: 1A5 VH5 + 4B7VL9; constant regions not specified
B6: huJS007-106 (antibody, human IgG1, kappa, V domains shown)
VH: QVQLQESGPGLVKPSQTLSLTCAVSGYSITSGYYWNWIRQPPGKGLEWIGYIGYDGSNNYNPSLKNRVTMSVDTSKNQFSLKLSSVTAVDTAVYYCARDYYSGYFDSWGQGTTVTVSS
VL: EIVMTQSPATLSVSPGERATLSCRASQNVGTYVAWYQQKPGQAPRPLIYSTSYRYSGIPARFSGSGSGTEFTLTISSLQSEDFAVYYCHQYDTYPLTFGQGTKLEIKR
B7: HuJS007-72 (antibody, V domains shown)
VH: QVQLQESGPGLVKPSQTLSLTCAVSAYSITSGYYWNWIRQHPGKGLEWIGYIGYDGSNNYNPSLKSRVTISRDTSKNQFSLKLSSVTAADTAVYYCARDYYSGYFDSWGQGTTLTVSS
VL: EIVMTQSPATLSVSPGERATLSCKASQNVGTYVAWYQQKPGQAPRPLIYSTSYRYSGIPARFSGSGSGTEFTLTISSLQSEDFAVYFCHQYDTYPLTFGQGTKLEIK
notes: 4B7 VH2-4 + 4B7VL9; constant regions not specified
B8: HuJS007-90 (antibody, V domains shown)
VH: QVQLQESGPGLVKPSQTLSLTCAVSGYSISSGYYWNWIRQFPGKGLEWMGYIGYDGSNYYNPSLKNRVTMSVDTSKNQFSLKLSSVTAVDTAVYYCARNYYSGYFDSWGQGTTVTVSS
VL: EIVMTQSPATLSVSPGERATLSCKASQNVGTYVAWYQQKPGQAPRPLIYSTSYRYSGIPARFSGSGSGTEFTLTISSLQSEDFAVYFCHQYDTYPLTFGQGTKLEIK
notes: 1A5 VH6 + 4B7VL9; constant regions not specified
B9: HuJS007-108 (antibody, V domains shown)
VH: QVQLQESGPGLVKPSQTLSLTCAVSGYSITSGYYWNWIRQPPGKGLEWIGYIGYDGSNNYNPSLKNRVTMSVDTSKNQFSLKLSSVTAVDTAVYYCARDYYSGYFDSWGQGTTVTVSS
VL: EIVMTQSPATLSVSPGERATLSCKASQNVGTYVAWYQQKPGQAPRPLIYSTSYRYSGIPARFSGSGSGTEFTLTISSLQSEDFAVYFCHQYDTYPLTFGQGTKLEIK
notes: 4B7 VH2-5 + 4B7VL9; constant regions not specified
B10: HuJS007-63 (antibody, V domains shown)
VH: QVQLQESGPGLVKPSETLSLTCTVSGYSITSGYYWNWIRQPPGKGLEWIGYIGYDGSNNYNPSLKSRVTISRDTSKNQFSLKLSSVTAADTAVYYCARDYYSGYFDSWGQGTTLTVSS
VL: EIVMTQSPATLSVSPGERATLSCKASQNVGTYVAWYQQKPGQAPRPLIYSTSYRYSGIPARFSGSGSGTEFTLTISSLQSEDFAVYFCHQYDTYPLTFGQGTKLEIK
notes: 4B7 VH2-3 + 4B7VL9; constant regions not specified
B11: HuJS007-70 (antibody, V domains shown)
VH: QVQLQESGPGLVKPSQTLSLTCAVSAYSITSGYYWNWIRQHPGKGLEWIGYIGYDGSNNYNPSLKSRVTISRDTSKNQFSLKLSSVTAADTAVYYCARDYYSGYFDSWGQGTTLTVSS
VL: EIVMTQSPATLSVSPGERATLSCRASQNVGTYVAWYQQKPGQAPRPLIYSTSYRYSGIPARFSGSGSGTEFTLTISSLQSEDFAVYYCHQYDTYPLTFGQGTKLEIK
notes: 4B7 VH2-4 + 4B7VL7; constant regions not specified
B12: HuJS007-82 (antibody, V domains shown)
VH: QVQLQESGPGLVKPSQTLSLTCAVSGYSISSGYYWNWIRQFPGKGLEWMGYIGYDGSNYYNPSLKNRVTMSVDTSKNQFSLKLSSVTAVDTAVYYCARNYYSGYFDSWGQGTTVTVSS
VL: DIVMTQSPDSLAVSLGERATINCKASQNVGTYVAWYQQKPGQPPKPLIYSTSYRYSGVPDRFSGSGSGTDFTLTISSLQAEDVAVYFCHQYDTYPLTFGAGTKLELK
notes: 1A5 VH6 + 4B7VL1; constant regions not specified
B13: HuJS007-87 (antibody, V domains shown)
VH: QVQLQESGPGLVKPSQTLSLTCAVSGYSISSGYYWNWIRQFPGKGLEWMGYIGYDGSNYYNPSLKNRVTMSVDTSKNQFSLKLSSVTAVDTAVYYCARNYYSGYFDSWGQGTTVTVSS
VL: DIVMTQSPDSLAVSLGERATINCKASQNVGTYVAWYQQKPGQPPKLLIYSTSYRYSGVPDRFSGSGSGTDFTLTISSLQAEDVAVYYCHQYDTYPLTFGQGTKLEIK
notes: 1A5 VH6 + 4B7VL6; constant regions not specified
B14: HuJS007-86 (antibody, V domains shown)
VH: QVQLQESGPGLVKPSQTLSLTCAVSGYSISSGYYWNWIRQFPGKGLEWMGYIGYDGSNYYNPSLKNRVTMSVDTSKNQFSLKLSSVTAVDTAVYYCARNYYSGYFDSWGQGTTVTVSS
VL: DIQMTQSPSSLSASVGDRVTITCQASQNVGTYVAWYQQKPGKAPKPLIYSTSYRYSGVPSRFSGSGSGTDFTFTISSLQPEDIATYFCHQYDTYPLTFGAGTKLELK
notes: 1A5 VH6 + 4B7VL5; constant regions not specified
B15: HuJS007-85 (antibody, V domains shown)
VH: QVQLQESGPGLVKPSQTLSLTCAVSGYSISSGYYWNWIRQFPGKGLEWMGYIGYDGSNYYNPSLKNRVTMSVDTSKNQFSLKLSSVTAVDTAVYYCARNYYSGYFDSWGQGTTVTVSS
VL: DIQMTQSPSFLSASVGDRVTITCRASQNVGTYVAWYQQKPGKAPKPLIYSTSYRYSGVPSRFSGSGSGTEFTLTISSLQPEDFATYFCHQYDTYPLTFGAGTKLELK
notes: 1A5 VH6 + 4B7VL4; constant regions not specified
B16: HuJS007-83 (antibody, V domains shown)
VH: QVQLQESGPGLVKPSQTLSLTCAVSGYSISSGYYWNWIRQFPGKGLEWMGYIGYDGSNYYNPSLKNRVTMSVDTSKNQFSLKLSSVTAVDTAVYYCARNYYSGYFDSWGQGTTVTVSS
VL: DIQMTQSPSSLSASVGDRVTITCRASQNVGTYVAWYQQKPGKVPKPLIYSTSYRYSGVPSRFSGSGSGTDFTLTISSLQPEDVATYFCHQYDTYPLTFGAGTKLELK
notes: 1A5 VH6 + 4B7VL2; constant regions not specified

Target: T1, huCTLA-4 ECD (his-tag)
Assay: ELISA, coated huCTLA-4 his
Experimental: HX1 hCTLA4 his was diluted with PBS (Hyclone) to 1.0 μg/mL, and the dilution was added to a microplate at 100 μL/well. The plate was let stand in an incubator at 37° C. and coated for 90 min and then washed, and 2% BSA was added to the plate at 200 μL/well. The plate was incubated in an incubator at 37° C. for 90 min and then washed. The humanized anti-CTLA-4 antibodies in Table 4 and the control antibody (ipilimumab) were diluted with a diluent (2% BSA) to 1000 ng/mL. The dilution performed each time was not higher than 10-fold. Then, the humanized antibodies and the control antibody were serially diluted 2.5-fold on a sample dilution plate. All the humanized antibody solutions and the control antibody solution were added to a microplate at 100 μL/well. The plate was incubated in an incubator at 37° C. for 60 min and then washed. An HRP-conjugated goat anti-human antibody IgG (Fc specific) was diluted 5000-fold with 2% BSA, and the dilution was added to the microplate at 100 μL/well. The plate was incubated in an incubator at 37° C. for 60 min and then washed. The color development solution TMB was added at 100 μL/well, during which bubbles were avoided. Color development was allowed at 37° C. for 15 min in the dark and then terminated by adding 2 M hydrochloric acid solution at 100 μL/well, during which bubbles were avoided. Reading (wavelength: 450/620 nm) was done within 10 min using a microplate reader.

Binding result, binds:
B1
B2
B3
B4
B5
B6
B7
B8
B9
B10
B11
B12
B13
B14
B15
B16
